Laboratory results published in patent publication US20220072120A1 (University of Washington, published 2022).

Molecular target: A/Hong_Kong/4801/2014 (H3N2) HA 1-676 Y98F GG lkr dn5B.SA (influenza A virus A/Hong_Kong/4801/2014 …)
Test: in vitro co-assembly; SEC, SDS-PAGE of elution peaks, negative-stain EM

B1: I53-dn5 A (designed binder)
chain: MGKYDGSKLRIGILHARWNAEIILALVLGALKRLQEFGVKRENIIIETVPGSFELPYGSKLFVEKQKRLGKPLDAIIPIGVLIKGSTMHFEYICDSTTHQLMKLNFELGIPVIFGVLTCLTDEQAEARAGLIEGKMHNHGEDWGAAAVEMATKFN
  binding result: binds
